The record followed here is doi:10.1101/2025.08.30.673231.

Several values for one entry are separate records, joined by “and”; a condition that tells them apart may be missing. Equal entries are not always repeated.

The target of test [1] is Pichia pastoris Pex5 CTD (residues 259-576, tag removed) (Pichia pastoris) (UniProt P33292). The test can be described thus: SEC-SAXS.
Test [2] has as its target Pichia pastoris Pex5 NTD (residues 1-276, tag removed) (Pichia pastoris) (UniProt P33292). The test can be described thus: SEC-SAXS. (In gel filtration, larger molecules generally elute earlier.)
Test [3] has as its target Pichia pastoris Pex5 full length (tag removed) (Pichia pastoris) (UniProt P33292). In words: SEC-SAXS.
In test [4] the target is Pex5 NTD variants (the Pex5 single E57R mutant and the double mutants R45E/R48E and M61A/F64A). In words: BLI. In general terms: In BLI a coated tip is dipped into the sample, and binding shifts an interference pattern.
Test [5] concerns the target 6xHis-GST-tagged Pichia pastoris Pex5 full length (Pichia pastoris) (UniProt P33292). The test can be described thus: BLI.
Test [6] deals with 6xHis-GST-tagged Pichia pastoris Pex5 NTD (residues 1-276) (Pichia pastoris) (UniProt P33292). In words: BLI.
Test [7] addresses 6xHis-GST-tagged Pichia pastoris Pex5 CTD (residues 259-576) (Pichia pastoris) (UniProt P33292). The test can be described thus: BLI.
The target of test [8] is Pichia pastoris Pex5 full length (tag removed) (Pichia pastoris) (UniProt P33292). The test can be described thus: ITC. Background: Isothermal titration calorimetry measures the heat released or taken up as one component is titrated into another.

As usually defined, the stoichiometry N is the number of molecules, sites or subunits per partner or assembly. As a reminder, the Kd is the equilibrium constant for the complex coming apart.

With “Pichia pastoris Pex8 (residues 33-713), N-terminally truncated (domain or fragment)”, the stoichiometry N in test [1], in test [2], in test [3] and in test [8] was 1 in each case. In test [4], the fold increase in KD against Pex5 NTD WT is 6 fold and 8 fold. Further, the Kd in test [5] is 78 nM; in test [6] it was 683 nM; in test [7], 4400 nM.

For the substance “Pichia pastoris Pex8 (ΔPTS1) (domain or fragment)”, the Kd in test [5] is 478 nM.
